Experimental data as given in publication doi:10.1101/2022.12.14.520480 (bioRxiv, 2022).

Molecular target: GST-LC3B (UniProt Q9GZQ8 1-120)
Experiment: pull-down

- binding result: binds
B1: MYC-tagged LIMP2 wild type (natural protein)
chain: MGRCCFYTAGTLSLLLLVTSVTLLVARVFQKAVDQSIEKKIVLRNGTEAFDSWEKPPLPVYTQFYFFNVTNPEEILRGETPRVEEVGPYTYRELRNKANIQFGDNGTTISAVSNKAYVFERDQSVGDPKIDLIRTLNIPVLTVIEWSQVHFLREIIEAMLKAYQQKLFVTHTVDELLWGYKDEILSLIHVFRPDISPYFGLFYEKNGTNDGDYVFLTGEDSYLNFTKIVEWNGKTSLDWWITDKCNMINGTDGDSFHPLITKDEVLYVFPSDFCRSVYITFSDYESVQGLPAFRYKVPAEILANTSDNAGFCIPEGNCLGSGVLNVSICKNGAPIIMSFPHFYQADERFVSAIEGMHPNQEDHETFVDINPLTGIILKAAKRFQINIYVKKLDDFVETGDIRTMVFPVMYLNESVHIDKETASRLKSMINTTLIITNIPYIIMALGVFFGLVFTWLACKGQGSMDEGTADERAPLIRT
